Assay: label from the status in PepcDB records

Sequence | protein production
RIGIVVAAHGNSTASSMVQVVSQLLNVDNLKAVDMPLDMPPKEALRKIVEAVGEVNEENGVLLLVDMGSLSTFSEEIVRQTGIDVRTVDMVTTPIVLEAARKTALIDTQLETLHESLKNFHGYADIRQSETKQ | not failed
RPFMQKRAQKALPHVSTGADALVGRKVLVTETIDPTTDKGRVAVDGDVWTARSLTGEVIEKGMRVEIVSYESIVLNVVVLGNDKQ | not failed
RRLNDELLGKVVSVVSATERTEWYPALVISPSCNDDITVKKDQCLVRSFIDSKFYSIARKDIKEVDILNLPESELSTKPGLQKASIFLKTRVVPDNWKM | failed
RSRTKLLLLTVIPLIVITALVMAVNYQSGLSTLQKELENYRTDLIDAKKKELQAYLMMGVTAVKPLYESDKAGENQAQAKQILKAMRFDSDGYFFAYDSQGVNTLHAIKPELEGKNLYGMKD | failed
RSSYVLPDKFVLSVPIQGNLDEVHSLSSSLPLLSSAEPLSFQDLLFLFDHAAGDKRIGSILLEIGGVHANPAKLTELRYSIEKMKASGKKVVAFLRSAEDSDYLLATACDSIVVEEGGFLMLDGLKAETLFYTKSLNKIGITFQASQWKTYKSGIEPFVRTGASSEYLEQIGELLDDVYDDYLGYASKRRGISRDSLQAVIDNMALLSAKKAVQLGLADGIASSWA | failed
RTEVVAVALDTSLEELKGRFVESGISKIIVYDGNIDNVVGYIHSSEMFRSPKDWRNHVKEVPIVPETMAAHKLMKLFMQQKKTIAVVVDEFGGTSGIVSLEDLVEEIFGDIEDEHDNTSYICKQIGE | not failed
RTRHLFEMTRELSRALTLEEVVRTSYHFLSSAFDAKVCLLMPNHHGELTPYNAEGMGQLPIDSGIARWCWDKDQIAGAGTDTLPSVPYQLHPISASQQVLAILAIEPNNLRQVLIPEQQQLLQTFNGLIANALERLQQAEMAEQSRINIEREQ | not failed
SAAKALKDLKNLPVSERNIDYKTKLLVGKMNGTAEDKPPQNSVPFDHNHPKGDEIEKPEAERVIVEIEYIESKDLNNVTQVDAVLKSLVTELDSKDWVLVCDALNTIRRLSIFHKEEMLHMLEKVILFIVKSLKNPRSAVSKTACMTSADIFSSYNDHTIDQLDLLLTQLLLKSSQDKRFVCEAAEKALVAMTAHVSPALLLPKLQPFLKNRNPRIRAKASTCFSRCVPRLGIEGIREYGIEKLVQAASSQLSDQLPESREAARAVLLELQTVYKKTTNVEPKEEHPEPVTWQIFCQSNLSPLSAQAVIRVTNVAGVAREGLVAGS | failed
SAALAGVFVWDEERIQEEELQRSINEMKRLEEMSNMFQSSGVQHHPPEPKAQTEGNEDSEGKEQRWEMVMDKKHFKLWRRPITGTHLYQYRVFGTYTDVTPRQFFNVQLDTEYRKKWDALVIKLEVIERDVVSGSEVLHWVTHFPYPMYSRDYVYVRRYSVDQENNMMVLVSRAVEHPSVPESPEFVRVRSYESQMVIRPHKSFDENGFDYLLTYSDNPQTVFPRYCVSWMVSSGMPDFLEKLHMATLKAKNMEIKVKDYISAKPLEMSSEAKATSQSSERKNEGSCGPARIEYA | not failed
SAESWLRLSGAGPAEEAGPEGGLEEPDALDDSLTSLQWLQEFSILNAKAPALPPGGTDPHGYHQVPGSAAPGSPLAADPACLGQPHTPGKPTSSCTSRSAPPGLQAPPPDDVDYATNPHVKPPYSYATLICMAMQASKATKITLSAIYKWITDNFCYFRHADPTWQNSIRHNLSLNKCFIKVPREKDEPGKGGFWRIDPQYAERLLSGAFKKRRLPPVHIHPAFARQAAQEPSAVPRAGPLTVNTEAQQLLREFEEATGEAGWGAGEGRLGHKRKQPLPKRVAKVPRPPSTLLPTPEEQGELEPLKGNFDWEAIFDAGTLGGELGALEALELSPPLSPASHVDVDLTIHGRHIDCPATWGPSVEQAADSLDFDETFLATSFLQHPWDESGSGCLPPEPLFEAGDATLASDLQDWASVGAFL | failed
SAKTDKLAQFLDSGIYESDEFNWFFLDTVRITNRSYTRFKVSPSAYYSRFFNSKQLNQHSSESNPKKRKRKQKNSSFHLPSVGEQASNLRHQEARLFLSKAHESFLKEIELLSLTKGLSDDNDDDDSSLLNKCCDDEVSFIELGGVWQAPFYEITLSFNLHCDNEGESCNEQRVFQVFNNLVVNEIGEEVEAEFSNRRYIMPRNSCFYMSDLHHIRNLVPEKISHYHIGRRCNSLIDVIYAAKSEEGYNLIVIDPPWENASAHQKSKYPTLPNQYFLSLPIKQLAHAEGALVALWVTNREKLLSFVEKELFPAWGIKYVATMYWLKVKPDGTLICDLDLVHHKPYEYLLLGYHFTELAGSEKRSDFKLLDKNQIIMSIPGDFSRKPPIGDILLKHTPGSQPARCLELFAREMAAGWTSWGNEPLHFQDSRYFLKV | failed
SALIAALSVSGLPSNRFTFEGFLPAKPTARRDRLTHLAHEPRTLIFYEASHRIAECLTDLATIFGSMRIAVVARELTKIFETVLDGTLATLQTQVANDENQRKGEFVIIVQGAADQ | failed
SALTAALSVCPLPSSSFFFAGFLPHKKGRKSRLEFLASIDSTIVLYESPHRIGRLMEEVKEHFPDAQVFAAREITKMHEEYVTGTPDELANHFTGQKQRGEFVVVVHPPDKH | failed
SALTLLEDWCKGMDMDPRKALLIVGIPMECSEVEIQDTVKAGLQPLCAYRVLGRMFRREDNAKAVFIELADTVNYTTLPSHIPGKGGSWEVVVKPRNPDDEFLSRLNYFLKDEGRSMTDVARALGCCSLPAESLDAEVMPQVRSPPLEPPKESMWYRKLKVFSGTASPSPGEETFEDWLEQVTEIMPIWQVSEVEKRRRLLESLRGPALSIMRVLQANNDSITVEQCLDALKQIFGDKEDFGASQFRFLQTSPKIGEKVSTFLLRLEPLLQKAVHKSPLSVRSTDMIRLKHLLARVAMTPALRGKLELLDQRGCPPNFLELMKLIRDEEEWENTEAVMKNKEKPSGRGRGASGRQARAEASVSAPQATVQARSFSDSSPQTIQGGLPPLVKRRRLLGSESTRGEDHGQATYPKAENQTPGREGPQAAGEELGNEAGAGAMSHPKPWET | not failed
SANSGCKDVTGPDEESFLYFAYGSNLLTERIHLRNPSAAFFCVARLQDFKLDFGNSQGKTSQTWHGGIATIFQSPGDEVWGVVWKMNKSNLNSLDEQEGVKSGMYVVIEVKVATQEGKEITCRSYLMTNYESAPPSPQYKKIICMGAKENGLPLEYQEKLKAIEPNDYTGKVSEEIEDIIKKGETQTL | not failed
SAQEKMELDLELPPGTGGSPAEGGGSGGGGGLRRSNSAPLIHGLSDTSPVFQAEAPSARRNSTTFPSRHGLLLPASPVRMHSSRLHQIKQEEGMDLINRETVHEREVQTAMQISHSWEESFSLSDNDVEKSASPKRIDFIPVSPAPSPTRGIGKQCFSPSLQSFVSSNGLPPSPIPSPTTRFTTRRSQSPINCIRPSVLGPLKRKCEMETEYQPKRFFQGITNMLSSDVAQLSDPGVCVSSDTLDGNSSSAGSSCNSPAKVSTTTDSPVSPAQAASPFIPLDELSSK | not failed
SASLPIRHLTPRDLTACADLSEDRGWPREEHKWGLLLAAGKGYGIDDPEGGLVSACVVTEYGPQDRPDLGAIGMVLVAERHARQGIGRRLMRHVMAEMATTPLTLCATPFGRPLYEELGFKVVGHSEMVRGYFAP | failed
SASYLILRNYRNSIEGLIEKGIRDEEFIPYYQPIVDSRTQEVVGYEVLLRWQKGHQLVPPSLFISAAEDSGLVVKITNQLIQQVHRDLAQIPAPRWVSINVVADHLEQHHLTHLLEELHWPYSERLKFELTERVPIKAMTQAQEEVFYLLKKGYQFKIDDFGTGYGGFAYLQNLQISSIKIDKMFVDTINTHDVKISVLDSIIASAQGGNIEVIAEGVEHQYQVDYLAERNVFWIQGYFYAKP | failed
SCNETGMLERLPLCGKAFADMMGKVDVWKWCNLSEFIVYYESFTNCTEMEANVVGCYWPNPLAQGFITGIHRQFFSNCTVDRVHLEDPPDEVLIPLIVIPVVLTVAMAGLVVWRSKRTDTLL | not failed
SDDREMDDGRWKASALRVPLQVSSAVIKQEVVTRLAPDPVPLTEGAIGIFLSGTEPESGQEDSGYKVIDNRKYVYSEGHWGPPTANDTIYLVGNDADVCAYYPYKDSYTDKTVIPLQSQDYVETEDIYYALNTMINGFTPAITFDMVHAYSLVELKISRENYFMPCEISKITLKNSNLIKKGTINIAVDGSIHSSETGNYDLTTVTDASPHTLSVGESYVCRVLMIPVPLKIERTDAEGGEFGLSVSLVIDGQQMLVEIPYSELGEFRQGEKYVIGLKIKGTEIVPTVKALEWEDEEVNGGNKYPVE | not failed
SDESDLPSAMPAVPAFGVEERNMVSGVLTLAERSIRSIMTPRTDVSWVNIDDDAATIRQQLTAAPHSFFPVCRGSLDEVVGIGRAKDLVADLITEGRVRRNRLRDPIIVHESIGILRLMDTLKRSRGQLVLVADEFGAIEGLVTPIDVFEAIAGEFPDEDELPDIVAESE | not failed
SDLVITQELARAESQQDAASLKKAYELIKSANLGKSEFDPSESFSPDLFVLCAEQALKMRQPEVSEDCIQMYFKVKAPITQFLGRAHLCRAQMCAPKSAENLEEFENCVTEYMKAINFAKGEPRYYFLVYNASVLYWQMVRPFLKPGYRHHLIPSLSQIINVLSQTEEEDKEWRAELMLELLECYLQAGRKEEAARFCSTAAPFIKSHVPQKYRQIFSVMVNQRIRNRDVRSNFLKSHCSENCVEIT | not failed
SDSAFANLDAAGFLQIWQHFDADDNGYIEGKELDDFFRHMLKKLQPKDKITDERVQQIKKSFMSAYDATFDGRLQIEELANMILPQEENFLLIFRREAPLDNSVEFMKIWRKYDADSSGYISAAELKNFLKDLFLQHKKKIPPNKLDEYTDAMMKIFDKNKDGRLDLNDLARILALQENFLLQFKMDASSQVERKRDFEKIFAHYDVSRTGALEGPEVDGFVKDMMELVRPSISGGDLDKFRECLLTHCDMNKDGKIQKSELALCLGLKHKP | not failed
SEAWEYFHLAPARAGHHPNQYATCRLCGRQVSRGPGVNVGTTALWKHLKSMHREELEKSGHGQ | not failed
SEKYNSLSDFLKEFYIPTYVLSAETEEEEEEESRPTPASPVLVFINSKSGGQLGGELILTYRSLLNHNQVFDLDQETPDKVLRRIYLNLERLKDDDFARQIREKLKIIVAGGDGTAGWLLGVVCDLKLSHPPPIATVPLGTGNNLPFAFGWGKKNPGTDRTAVESFLEQVLKAKVMKIDNWHILMRMKTPKEGGSCDPVAPLELPHSLHAFHRVSPTDELNKEGCHTFRGGFWNYFSLGMDAQISYAFHSERKLHPEKFKNQLVNQSTYVKLGCTQGWFCASLFHPASRNIAQLAKVKIATRNGQWQDLHIPHSIRSIVCLNLPSFSGGLNPWGTPNPRKQRDRGLTPPFVDDGLIEVVGFRNAWHGLVLLAPNGHGTRLAQANRIRFEFHKGATDHTFMRMDGEPWKQPLPLDDETVMVEISHLGQVNMLATHDCRSRSVFDPSTPRHQDGAEDYDDNEDDSVAEGEEFRKFGAADTFKIPDEVDISQLS | failed
SESGFTSKDTYLSHFNPRDYLEKYYKFGSRHSAESQILKHLLKNLFKIFCLDGVKGDLLIDIGSGPTIYQLLSACESFKEIVVTDYSDQNLQELEKWLKKEPEAFDWSPVVTYVCDLEGNRVKGPEKEEKLRQAVKQVLKCDVTQSQPLGAVPLPPADCVLSTLCLDAACPDLPTYCRALRNLGSLLKPGGFLVIMDALKSSYYMIGEQKFSSLPLGREAVEAAVKEAGYTIEWFEVISQSYSSTMANNEGLFSLVARKLSRPL | failed
SFRHTLSVDPSEQLSQDFADPVTDSGYESDEEAAAAATASLSGEEAALWNLVDPQQRLIFVLDGPAAQTLRVKRTGNLERQVVNIHRLPLERAPTVATSLLAATRPQHLVVALRTIEPHQAAAILTSTSYPSLSNVENASQVLVLANDLVQIDDPLLRPLWSDEGTQQNRIQLRWVETGCIGGITAALLAAGCWLRIPVLALLAVEDDDGPSPATLEALLLAAERFGCFTRADWEIRMPNLRQLLAKRQLLYI | not failed
